Experimental data as given in article PMC3742519.

Target: subtilisin A (Bacillus licheniformis) (Bacillus licheniformis) (UniProt P00780)
Assay: enzyme inhibition kinetics (Lineweaver–Burk); substrate (AAPF) added to an equilibrium mixture of subtilisin A and rEs-DWD1; competitive inhibition, inhibitor at 0, 2.5 and 5 μM; 0.1 M Tris-HCl pH 8.0, 37 °C; p-nitroaniline read at 405 nm

UniProt P00780, sequence (P00780 106-379): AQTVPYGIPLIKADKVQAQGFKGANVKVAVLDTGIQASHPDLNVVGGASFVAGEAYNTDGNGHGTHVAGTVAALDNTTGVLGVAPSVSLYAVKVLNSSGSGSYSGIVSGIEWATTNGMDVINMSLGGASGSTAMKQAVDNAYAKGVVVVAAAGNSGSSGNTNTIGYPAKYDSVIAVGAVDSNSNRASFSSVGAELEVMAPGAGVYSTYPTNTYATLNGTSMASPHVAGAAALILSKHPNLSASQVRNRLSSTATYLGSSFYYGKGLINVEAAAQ

“recombinant Es-DWD1 (double WAP domain-containing protein from Eriocheir sinensis) (natural protein)” gave a Ki of 4.12 nM.
